According to patent US20120301476A1 (TORAY INDUSTRIES, published 2012):

Experiments:
[1] = target: T1, recombinant human CAPRIN-1 protein having the amino acid sequence represented by SEQ ID NO: 2 (prepared in … (human, UniProt Q14444 1-709, limits assumed)); experiment: SPR (BIACORE2000), CAPRIN-1 recombinant protein amine-coupled to CM5 chip, antibody as analyte
T1 construct: Expressed in E. coli from pET30a; the His-tag was cleaved off with enterokinase; also called CAPRIN-1 recombinant protein; CAPRIN-1 molecule
T1 sequence: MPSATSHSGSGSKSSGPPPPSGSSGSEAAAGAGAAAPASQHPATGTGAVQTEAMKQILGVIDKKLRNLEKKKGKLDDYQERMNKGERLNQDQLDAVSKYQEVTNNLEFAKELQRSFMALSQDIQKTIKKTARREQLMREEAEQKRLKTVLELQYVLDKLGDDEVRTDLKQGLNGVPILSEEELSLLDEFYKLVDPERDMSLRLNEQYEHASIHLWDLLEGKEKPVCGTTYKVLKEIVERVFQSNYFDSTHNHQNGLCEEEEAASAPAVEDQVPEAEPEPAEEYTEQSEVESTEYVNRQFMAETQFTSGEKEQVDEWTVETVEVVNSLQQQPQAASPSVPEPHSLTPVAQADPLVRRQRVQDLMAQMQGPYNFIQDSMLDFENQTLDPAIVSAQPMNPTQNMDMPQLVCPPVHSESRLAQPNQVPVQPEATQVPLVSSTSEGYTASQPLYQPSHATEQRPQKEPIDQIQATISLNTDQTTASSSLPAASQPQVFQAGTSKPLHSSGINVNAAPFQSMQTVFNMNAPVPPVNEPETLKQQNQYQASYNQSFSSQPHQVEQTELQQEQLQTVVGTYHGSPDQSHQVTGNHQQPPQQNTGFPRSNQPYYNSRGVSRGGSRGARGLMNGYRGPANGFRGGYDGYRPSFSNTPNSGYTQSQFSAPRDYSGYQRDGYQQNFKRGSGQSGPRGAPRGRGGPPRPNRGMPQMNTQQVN
Protocol: As a reference control (reference cell), a sensor chip with 20 μg/ml bovine serum-derived albumin immobilized thereto by the same method was used. A sensor chip to which the CAPRIN-1 molecule had been immobilized was set in BIACORE2000, 40 μL, each of the antibody solution (analyte) prepared to have a concentration (100, 80, 40, 20, 10, 5, or 2.5 μg/mL) was applied at a flow rate of 20 μL/minute, the surface plasmon resonance angle at the time of binding of an antibody to the CAPRIN-1 molecule immobilized on the sensor chip was measured, so that each RU value (Resonance Unit) was obtained. Next, a running buffer HBS-EP solution (GE) was applied and then the resonance angle upon dissociation of the antibody from the CAPRIN-1 molecule was measured, and then the RU value at this time was obtained. An antibody solution was similarly applied to a reference control (reference cell) sensor chip, the resonance angle at the time of immobilization reaction and the resonance angle at the time of dissociation reaction were measured, and thus the background RU values were obtained. […] Association rate constant (kₒₙ) and dissociation rate constant (koff) were found from the thus obtained RU value at each antibody concentration using affinity analysis software BIA evaluation, so that affinity constant Ka(=kₒₙ/koff) was calculated.

[2] = target: T2, human CAPRIN-1 protein on the cell surfaces of human cancer cell lines and in human cancer tissues (human, UniProt Q14444 2-709); experiment: flow cytometry on the listed human cancer cell lines, culture supernatant, against negative control
T2 construct: whole, on cells; Endogenous protein of human cancer cell lines (flow cytometry, ADCC, CDC) and of human cancer tissue sections (immunohistochemistry); also called CAPRIN-1 protein expressed on the cell membrane surfaces
T2 sequence (looked up): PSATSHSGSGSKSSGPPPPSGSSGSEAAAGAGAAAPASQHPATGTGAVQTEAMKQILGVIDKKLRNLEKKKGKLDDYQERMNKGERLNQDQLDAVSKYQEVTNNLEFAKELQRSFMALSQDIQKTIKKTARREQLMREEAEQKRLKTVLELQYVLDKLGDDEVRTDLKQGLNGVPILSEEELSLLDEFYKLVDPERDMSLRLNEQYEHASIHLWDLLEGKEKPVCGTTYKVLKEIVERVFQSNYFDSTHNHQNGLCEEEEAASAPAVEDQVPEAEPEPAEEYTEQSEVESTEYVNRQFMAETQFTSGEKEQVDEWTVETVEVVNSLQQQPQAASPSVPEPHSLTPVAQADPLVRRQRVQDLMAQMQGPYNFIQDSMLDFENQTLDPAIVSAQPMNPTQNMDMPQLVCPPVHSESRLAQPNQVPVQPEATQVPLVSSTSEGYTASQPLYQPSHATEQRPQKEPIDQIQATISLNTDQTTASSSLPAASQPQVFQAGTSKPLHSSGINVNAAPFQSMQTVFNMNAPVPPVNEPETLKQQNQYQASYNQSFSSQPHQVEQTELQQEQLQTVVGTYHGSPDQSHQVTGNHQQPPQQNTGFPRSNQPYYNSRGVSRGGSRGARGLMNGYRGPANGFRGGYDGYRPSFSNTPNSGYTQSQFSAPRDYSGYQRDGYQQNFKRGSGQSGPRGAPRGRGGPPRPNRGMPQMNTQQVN
Protocol: 10⁶ cells of each cell line were centrifuged in a 1.5 ml microcentrifuge tube. Each cell culture supernatant (100 μl) of CHO-K1 cells containing #1 obtained in (2) above and hybridomas producing #2, #3, #4, #5, and #6 obtained in Example 3 was added and then left to stand on ice for 1 hour. After washing with PBS, a FITC-labeled goat anti-human IgG (H+L) antibody (SouthernBiotech) and a FITC-labeled anti-mouse IgG (H+L) antibody (Invitrogen) diluted 500-fold with PBS containing 0.1% FBS were added and then left to stand on ice for 1 hour. After washing with PBS, fluorescence intensity was measured using a FACS Calibur (Becton, Dickinson). Meanwhile, procedures similar to the above were performed using a culture supernatant of CHO-K1 cells into which no antibody gene had been introduced and medium for culturing hybridomas, so that a negative control sample was prepared. […] Specifically, when the antibody #1 was used, fluorescence intensity was enhanced to 4700% in the case of SK-BR-3 and 5500% in the case of MDA-MB-231V. Also, when the antibodies #2, #3, #4, #5, and #6 were used, fluorescence intensity was enhanced. […] The percentage of enhancement in the above fluorescence intensity was expressed as percentage of increase in mean fluorescence intensity (MFI level) in each type of cell and calculated by the following formula.

- Ka [1]: 4.6e+07 M⁻¹
- percentage of increase in mean fluorescence intensity [2]: ≥ 20%
B1: human-chicken chimeric antibody #1 having the chicken monoclonal antibody #1 variable region (antibody, V domains shown)
VH: AVTLDESGGGLQMSRGGLSLVCKASGFDFSSYQMNWIRQAPGKGLEFVAAINKFGNSTGHGAAVKGRVTISRDNGQSTVRLQLNNLRAEDTAIYFCTKHAYGYCGSGTWCAAGEIDAWGHGTEVIVSS
VL: QAASTQPSSVSANPGETVEITCSGGGSYSYGWFQQKSPGSAPVTVIYYNNKRPSDIPSRFSGSKSGSTGTLTITGVQADDEAVYYCGSGDSTDTAVFGAGTTLTVLG
notes: also called anti-CAPRIN-1 antibody #1; human-chicken chimeric monoclonal antibody (#1); not shown: human IgG1 H-chain constant region; human IgG1 L-chain constant region
